The values that follow come from paper PMC7057333 (ACS Omega, 2020).

Read-outs that look alike come from different tables or passages of the source. Numbered stars: 1 amine (or outer) side, 2 acyl side, 3 side chain; on linkers, the order of the positions; unused ones are H or OH. Bridge positions count the residues as written; N and C are the ends. Square brackets hold non-standard residues; d marks the D form. Ends that are not written are not given here. dNle(6-ylidene) = O=C([C@@H](CCCC=[*:3])N[*:1])[*:2]; Gly(pent-4-enyl) = C=CCCC[C@H](N)C(=O)O; Lys(N3) = [N-]=[N+]=NCCCC[C@H](N)C(=O)O; hPhe = N[C@@H](CCc1ccccc1)C(=O)O; Cit = NC(=O)NCCC[C@H](N)C(=O)O; AllylGly = C=CC[C@H](N)C(=O)O; Aoc(2) = CCCCCC[C@H](N)C(=O)O; Pra = C#CC[C@H](N)C(=O)O

For assay [1], the target named is T1, LSD1_(172-833), lysine-specific demethylase 1 (human, UniProt O60341-1 172-833). In words: cell-based or functional assay.
Assay [2] addresses T1, LSD1_(172-833), lysine-specific …. Put plainly: cell-based or functional assay. The source holds these as a separate data set.
Assay [3] has the same target. In words: enzyme inhibition kinetics (HRP-coupled fluorescence demethylation assay); 25 nM LSD1, substrate H3K4me1_(1-21), 25 mM Tris, 50 mM NaCl, 0.1 mg/mL BSA, pH 8, 1% DMSO; Ki by global fit of competitive inhibition for 1, 11, 24, 28, 31, 33, 34, else from IC50 by Cheng-Prusoff (substrate 20 μM). To be noted: both partners purified.
The target of assay [4] is T2, LSD1_(172-833), lysine-specific demethylase 1 (human, UniProt O60341-1 172-833). In words: SPR; LSD1 immobilised by amine coupling on CM5 (12 000-15 000 RU), peptides injected; TBS-T (25 mM Tris, 150 mM HCl as printed, 0.05% Tween-20, 1 mM DTT, pH 8.0), 15 °C; 1:1 Langmuir model or steady state; highest tested concentration 200 μM. Conditions: both partners purified.
The target of assay [5] is T1, LSD1_(172-833), lysine-specific …. The assay is described as above. To be noted: both partners purified. The source holds these as a separate data set.
The target in assay [6] is T2, LSD1_(172-833), lysine-specific …. Put plainly: cell-based or functional assay. This is another data set of the same source.
For assay [7] the target is unchanged. Put plainly: SPR; LSD1 immobilised by amine coupling on CM5 (12 000-15 000 RU), peptides injected; TBS-T (25 mM Tris, 150 mM HCl as printed, 0.05% Tween-20, 1 mM DTT, pH 8.0), 15 °C; 1:1 Langmuir model or steady state; highest tested concentration 200 μM. Conditions: both partners purified. This is another data set of the same source. Background: In SPR one partner is held on a chip, and binding of the other changes the refractive index at the surface.

The target is the same in assay [8]. In words: enzyme inhibition kinetics (HRP-coupled fluorescence demethylation assay); 25 nM LSD1, substrate H3K4me1_(1-21), 25 mM Tris, 50 mM NaCl, 0.1 mg/mL BSA, pH 8, 1% DMSO; Ki by global fit of competitive inhibition for 1, 11, 24, 28, 31, 33, 34, else from IC50 by Cheng-Prusoff (substrate 20 μM). To be noted: both partners purified. The source holds these as a separate data set.

[AllylGly]R[AllylGly]MQTARKST-NH2 [peptide 18, linear precursor of 19 (allylglycine at positions 1 and 3 of H3_(1-11) K4M)]: the “% inhibition of LSD1 demethylase activity at 100 μM peptide” value (“% inhibition” for short) in assay [1] came to 98%.

As to AREMQKA[Cit]KST-NH2 (lactam 3-6) [lactam 34 (Arg8Cit-substituted analogue of peptide 28)], in assay [2], the “% inhibition” value was 97%. The Ki – broadly, a measure of affinity in units of concentration, obtained from inhibition or displacement – in assay [3] came out at 8 µM.

In the case of ARTMQTA [H3_(1-7) K4M (peptide 6)], in assay [4], the dissociation constant (Kd) (in general, the free concentration of one partner at which half of the binding sites on the other are occupied at equilibrium, for simple one-to-one binding) was greater than 200 µM.

As for ARTMQTARKSTGG [H3_(1-13) K4M (peptide 3)], the dissociation constant Kd in assay [4] was determined as 36 µM. On to AR[Pra]MQ[Lys(N3)]ARKST-NH2 (triazole 3-6) [triazole 36 (triazole-bridged H3_(1-11) K4M, propargylglycine at 3, azidolysine at 6)], for which, in assay [2], the “% inhibition” value is 70%. Besides, the affinity in assay [3] corresponds to a Ki of 30 µM.

On to [AllylGly]R[AllylGly]MQTARKST-NH2 (staple 1-3) [stapled peptide 19 (Ala1-Thr3 cyclization, 4-carbon olefin bridge)], for which, in assay [1], the “% inhibition” value came out at 100%. Consider AR[AllylGly]MQ[AllylGly]ARKST-NH2 (staple 3-6) [stapled peptide 21 (Thr3-Thr6 cyclization, 4-carbon olefin bridge)], for which the “% inhibition” value in assay [1] worked out at 95%. In turn, ARTMQTARKSTGGKA [H3_(1-15) K4M (peptide 2)] came in with a Kd in assay [4] of 5 µM. ART[hPhe]QTARKST-NH2 [H3_(1-11) with L-homophenylalanine at position 4 (peptide 17)] had a Kd in assay [5] greater than 200 µM. Regarding ARTMQTARK [H3_(1-9) K4M (peptide 5)], in assay [4], the Kd is greater than 200 µM. Still for that read-out and setting: under Ac-RTMQTARKSTGGKAPRKQLA [H3_(2-21) K4M (peptide 7)] stands 45 µM.

Consider A[Cit]EMQKARKST-NH2 (lactam 3-6) [lactam 33 (Arg2Cit-substituted analogue of peptide 28)], for which the “% inhibition” value in assay [2] is 97%. For the same molecule, affinity in assay [3] was put at a Ki of 4.2 µM. On to AR[dNle(6-ylidene)]MQ[dNle(6-ylidene)]ARKST-NH2 (staple 3-6) [stapled macrocycle 26 (stereoisomer of 23, D-pentenyl glycine at 3 and 6)], for which the “% inhibition” value in assay [1] amounted to 90%. In turn, ART[Aoc(2)]QTARKST-NH2 [H3_(1-11) with 2-S-amino octanoic acid at position 4 (peptide 16)] had an equilibrium dissociation constant (Kd) in assay [5] greater than 200 µM. Take ARTKQTARKST-NH2 [H3_(1-11) K4 (peptide 9), wild-type 11-mer]: in assay [4], the dissociation constant (Kd) is greater than 100 µM. Take ARTMQTARKST [H3_(1-11) K4M (peptide 4)]: the “IC50 of inhibition of LSD1 demethylation of H3_(1-21) K4(Me), enzyme activity assay” value in assay [6] was greater than 100 µM. On to PRTMQTARKST-NH2 [A1P-substituted H3_(1-11) K4M (peptide 11)], for which the Kd in assay [7] worked out at 10 µM. Further, the Ki in assay [8] is 8 µM. Turning to AR[Lys(N3)]MQ[Pra]ARKST-NH2 (triazole 3-6) [triazole 35 (triazole-bridged H3_(1-11) K4M, azidolysine at 3, propargylglycine at 6)], the “% inhibition” value in assay [2] was less than 30%. For the same molecule, in assay [3], the Ki was greater than 100 µM.

Consider AR[Gly(pent-4-enyl)]MQ[Gly(pent-4-enyl)]ARKST-NH2 [peptide 22, linear precursor of 23 (pentenylglycine at positions 3 and 6 of H3_(1-11) K4M)], for which the “% inhibition” value in assay [1] turned out to be 100%. As for AR[Gly(pent-4-enyl)]MQ[Gly(pent-4-enyl)]ARKST-NH2 (staple 3-6) [stapled macrocycle 23 (8-carbon olefin bridge between residues 3 and 6)], in assay [1], the “% inhibition” value was 75%.
